Assay results taken from PMC3715429.

Molecular target: EphrinA2 (EphA2) receptor tyrosine kinase (human (endogenous in HFF)) (UniProt P29317)
Assay: co-IP; lysates of c-Cbl siRNA-transfected HFF cells infected with KSHV for 5 min; IP with anti-EphA2 antibody, Western blot for clathrin; compared with control siRNA cells

- fold reduction of the co-IP in c-Cbl siRNA cells against control siRNA cells: 8 fold
Substance: clathrin heavy chain (from UniProt Q00610 1-1675) (natural protein)
